Assay results from the DeepSol protein solubility set.

test: soluble on expression in E. coli; label from the status in PepcDB or PDB records

Sequence	soluble on expression in E. coli
MPGKNEYAVESLLTVGNGFLGLRGTTPEMTISDDHYPATYIAGLYNTAASEVAGQVVENEDFVNAPDNQHIALKIGDATDWLTISPDTLQQLHRQLNLKTGLFVAEMILKDADNQQIKLTTKKIANMAQPNDYHLQYTFEPLNFSAPITLKTVTDGSVYNYNVARYRNLTAKHFQVTALSAQENKTVIEVCTNQSNLSVRETSLITGDFFEKEAITIQEEAEKIAQVVTVMAHQGTRYTLEKQVFVQASHAEQSWQVPFTPKDSFAAAAQESARAWQTLWQQANITVTGDLMSQKLLRIHSYHLLASASPFSNQAQALDVSITARGLHGEAYRGHIFWDEIFILPFYIQHYPDTAKQLLLYRYHRLEKAKENAAASQYRGAMYPWQSGRDGRETTQKLHLNPLNGHWGEDHSILQRHVSLAIAYNAWLYWHSTQDHEFMKQYGGEMLLEIAQFWNSAATLDDATGRFFIDKVMGPDEFHEGYPDQAESGLKNNAYTNLMVVWLFEELTNILALFSEEEQAQLFAKTQTTSADLARMQQIQNSLEIEVNSDGIIAQYEGYFGLKEIDWTAMKEKYGNIYRMDRILKAEGESPDDYKVAKQADTLMLFYNLDKTRVDQILEDLGYQLPADYLEKNLLYYLKRTSHGSTLSRIVHAQLAEMAQFHELSWQLYQEALYSDYRDIQGGTTAEGIHTGVMAATIHVTLATYAGVDTRQNELSICPNLPEHWQALAFQFIHQGVTYQFSLTQTSVTITADRDTQLLVQGALIPLTAERPKEVHYQ	not soluble
MKLKIVFFGASLAGKSTTVRKLYEILKEKGLVKGEFMSIDTDEKRTLFVEMFLSKIPIDGQEIDFKILTTPGQFRLHPLRKAIMQGVDGLVFTVDSQTGREEINFLVLRETAHVLKDSTWIYTQYPSLFSTTREIFPTHFPLEHHHHHH	not soluble
TKDFSWDTTLSFTWSKEKINSLPTGDLIKENLFEGQPIHALYDYKYAGIWGSNVPQETLDAYGVKPGWVKIETLDKDGDGGVHKYGEDDRQILGHTNPDVILGLNNTLTYKNFDLSIFAMARYGQTIKSSLIGWYRASSNYSINQPAGVDYWTENNQGAYYPVPGSGDEQKVMSALTYRDGSFIKVKNITLGYTLPQSVSRKVLMEKCRFYATAYNPFLYVKDKELRGTDPETNGSDAFPLYKQFVFGINVTF	not soluble
MSLDSIKVKNEYEKLTGSDSVVRRGMFNVYQKKNDYYFEIPSTLLERDMLVVNKLQRVPAELNEAGVNRGTNYENQMIRFELDKSANKLLIRQSRPLPISPSEDAISQSVKDNYISPLIAGFKVEAYNNDSTSILIKVNDIYDGTETSINNVFTNINLGTSAIKNLSRILSIKSFDNNVVATSELTTRVTEGTTTIYVTVEVSSSILLLPEVPMTGRLDNPRVGYFTNPLTNFSDGQQRVNKKQFITRWRLEPRPEDRAAYLRGELVEPRKPIVFYIENSTPYRWRKYIKQGIEDWQVAFERAGFKNAIIAKDITEDMEVDMDDVNYSVLTYAASTKANAMGPSILDPRSGEILEADIMWWHNVLSMLQEWITVQTGVVRPEARGVALPDSLMGDAMRFVACHEVGHSLGLRHNMMGSWAFPTDSLRSKTFTDRMNSTSSSIMDYARFNYVAQPGDGIKALSPHIGPYDMFAIEYGYRWYGKQTPEEEKELLQDFLAKHTDRLYKYSEAQDPRDAVDPRAQNEDLGDDPIRSSQYGIANLKCIVPQIIQWTTTGEKGQTYEEASRLYYAVINQWNNYLYHVMANIGGIYIENTTVGDGEKTYTFVEKEKQQAALRFLLDEVLCYPKWLFDPEIAQYTYLLKNTPLGVVENAPTQVLKNAQAYVFWDLLSNNRLMRMLENESVNGKKAFTAVELMDGLHKSIFAVTERGGLPDVMTRNLQKGFVDALITAAAESEGVKVNKKLIDNHFLFDLQTPICSCDDHVHRSAHTDRMGARRELNFYGSQINRISDAISVKRGELLRIKDLLQSRLGTSDVATKYHYKDLILRINTALGISKEGHHHHHH	soluble
MEEDSREDDFNGKIRRSLCEWLGPFEEFHDRVAKNQQTSRHGLIRSKMKPRPSPFVTLQAPPHESPSHVPVHVALQSMKNLVDERITEITHHEFADLKKGMNNVKSSATSSTDKKRKIGEDEDSQIEVKRKKESRNYIPPSTPDSGTHSTESDMIEEPNSDEVAAMLSIMKTLDTPKLSPLPKDFKVVCKEDEQPGPSSSKFPSDSSVSAASTSRESTPEPKLLGTLRIKALKPERVQKLIELAKTRGKLTDVVEVEKKVVEKVVEKQEKRVLEPLPPPPRPPSVPAVPAVPTPSRDPILGPGSGSARNSPLPPQKPANKTVQSLQGLQGSSRTMSPSPRNIRSTTPSVPSRPPSALSTHSHVETEVAAVATTSAPAEASAAVKPRFVCQWSHARLKKAQRVPFPDPSSTSTKTKGEFYHALAKDWKSKADNSKDRVTRPLNYMLSSVFFVLEAIWKADKERTTQSKMQCASIYRDTYELLGVAVFQGVRDTDDSLAVHILPRVKVIGQVMLAVMQYQMYIFRSEQAIKTMSRLDMREVSESIDIRPVSRASDSSSVHSQHLTVPTNKAVTSVAHGTPKPSPSAGSTPSGPTGAPVIPWIASIQACQNMVSMPQIVYDAYKSQLKTANGLMLASRYWEDSKTLSNIIDSGTFVKDVESIVGKSISMDMQFADLATFVLTAVGSLKAEYEEEQKQPAKPILAKVKKGLDLAIRTGTFHSDRPPPVHRPSNNTPDGKARRKQ	not soluble
MMEGVRRAVAKFLRGGGVYEKAVDAFVKDLQRELIKADVNVKLVLNVTRRIKERALKEEPPPGVTRRDWMIKIVYEELVKLFGGDQEPQVDPPKTPWIVLLVGVQGSGKTTTAGKLAYYYVRRGYKVGLVSSDTHRPGAYEQLKRLAEEAGAMFYGEREGDPAEIARRGLEDLLSRGAEIVIVDTAGRHGHGEEARLLDEMKAIASKVRPDEVALVIDASIGQKAMGLAERFHKSTPIGSIIVTKMDGTARGGGALTAAAVTGARIKFIGTGETLGELEPFAPRRFVARILGMGDLESLLERIKSLEEAGELDRAAEDVLKGRITMRTIYRQLRAMRKLGPLGKVLQMLPGASMLASIDEGALKLGEEKMKRWMAIIESMTYEELDRPEIIDKRRMRRIAIGSGTSVDDVRELLVYYKNLKTMMKKLKRDKRLLRRLGMEL	soluble
MSLNLKKAELHVHLEGTISPELAKKLAKRNQLTLPNGLIAPDEKSYLSRDFLDFLKVYDTLASVIKNPQDYYDITFDYLKSNAQEHAIYIEMMYSPDHAEQSSGIPSKEHLAAIQQAIDDAKSQFDIVGRIIITAVRHFGVEACERVAKQASIDKFPCVTGFGLGGDEAKFPPQLFTKAYQIAADSGLECTVHAGEFDSAKGMEEAMKTLPIKRIGHGVRVIDSPDIMAMVKDQGIALEVCPTSNIFLGLFKDMNSHPFPKLYEAGIKVSINSDDPPFMSTTLAQEYKRVQKAYGYNNDTMNNITRMAIEAAFVDEKTRKELLTKLEQEGHHHHHH	soluble
MAHHHHHHMAYVFDKITKTVTIYMGNTKSKIVLGGLWQRGMKGYIIYDVARQGTPPDTNFAPTTGWSMILVSSPNVRNYDGWATQVKASRIIMNCPDEMDVKAMCAWMKRGLDTDKQAGYWKMVEKHMEKVGPIPRHIFDADEYGERTWDATSALRWINIGEQRKYFTKGGEQWYSEDLSHKLLKIVRVREDGAFEDLSNAPICDYLGVLTVSRLAKALSPNDILFLVLGMKNVVQSAALKKYGLNVFLSVEFVTSIVTDLKELQPPSPSEPRSSVLTLNPHGYPTEAAAITELKFIDRPQELKYRVLYIPTFPTFPLVDGFFFVDSPRKTLVGLQMTTASAHHTTASTVRQFTECMAAYFDDWDEFSRDMSWDMIYIQHAASKPMKKRQKCLYVDSNNKTDAEKKIVAFWNGKVHQYQFVLTTDF	not soluble
MGHHHHHHSHMSPAPVIPSNTDYPGPHHFEVTFQQSSTAKSATWTYSPLLKKLYCQIAKTCPIQIKVSTPPPPGTAIRAMPVYKKAEHVTDVVKRCPNHELGRDFNEGQSAPASHLIRVEGNNLSQYVDDPVTGRQSVVVPYEPPQVGTEFTTILYNFMCNSSCVGGMNRRPILIIITLEMRDGQVLGRRSFEGRICACPGRDRKADEDHYREQQALNE	soluble
MGSDKIHHHHHHRGDKPVVWNHQDRRFEVIQQKKQRQRLDSYRRIVIDTTAPVTIRQGDTRQVTLHNFSSANNRLRARVSQGTLTVTGGSTTMNYVLGFGSDGGGINFSSNGDKRGVVITVPKTQRLDSIISKREGGELSLKKMTVKQISVKSTDDVSFNDVRVTKTLAVDTTAGDISGKQVKADRVDLTAEEGDVSLTQSHFKAVNNRVISGDGDVRLATTQLGGGHVVASDGDIQLHDNRLMGTLKATATDGDISARIAPAAGAKVTTTDSDDEIHVVGHSRSSGYWLRRAASAQYRLSTDDGDITVTQ	not soluble
MNTILAQQIANEGGVEAWMIAQQHKSLLRFLTCGSVDDGKSTLIGRLLHDTLQIYEDQLSSLHNDSKRHGTQGEKLDLALLVDGLQAEREQGITIDVAYRYFSTERRKFIIADTPGHEQYTRNMATGASTCDLAILLIDARKGVLDQTRRHSFISTLLGIKHLVVAINKMDLVDYREETFARIREDYLTFAEQLPGDLDIRFVPLSALEGDNVAAQSANMRWYSGPTLLEVLETVDIQRAVDRQPMRFPVQYVNRPNLDFRGYAGTLASGSVKVGERIKVLPSGVESSVARIVTFDGDKEEACAGEAITLVLNDDIDISRGDLLLAANETLAPARHAAIDVVWMAEQPLAPGQSYDVKLAGKKTRARIEAIRYQIDINNLTQRDVESLPLNGIGLVEMTFDEPLALDIYQQNPVTGGLIFIDRLSNVTVGAGMVRELDERGATPPVEYSAFELELNALVRRHFPHWDARDLLGDKHGAA	not soluble
MAHHHHHHMSSVLKADVKEYIPSWANKRSSGVNPAATSTNKNGFATSVPTSNVMTTHSGCTGINAQNFTSSPRAAAGLPLCSPTTALRLPTRMSPMHAPFPSVSISMNPNATDFVPHLTGANSLAPLPTSTADLAEEKERQQKQESHLSSSMKWTTTSTRKNITQPALPLAVKANFTPTFAPIYVEKTEEEILEISKRSSLKVGAAAFVPRRTLNRVMIAKPSPFSLTPATGEMTLGDLWCLFYLPAGLGECIRENTYDPTLVFRVDSVATFWKVFNNIPQPTEMKIGTLYFFRDGINPKWEDPGNRDGGILKMKLDSHCINDAWVYLLCRTIGESWSKSVRDTVNGVALKARERAYLLEVWVTEQSAELMMDISELLRPLLGDVFSVFYAPHSVTQERAAAAALAEKKRSRNNRRRW	not soluble
GMQLTSENYYSQEANKEYMSVSGYKDFAGTYGKMPCEFYGMEKLNGRWEDEKSTALLVGSYVDSYFEGSLDQFKKDNPEIFTQKGELKANFKQAEEIIARIERDEYFMKYMSGQKQVIMTGELFGAKWKIKMDSYIPGVAIVDLKVMASITDLKWVKDIGYLDFVRYWGYDIQGAVYQEIVRQNTGEKLPFFIAGATKQTEPDIRIIHVTDNYLQEALHMVEMNMPRILRVKNGEVEPDRCELCDCCRHNRVLKKPISIMDLTAGI	soluble
MKIKTILTPVTCALLISFSAHATNADNYKNVINRTGAPQYMKDYDYDDHQRFNPFFDLGAWHGHLLPDGPNTMGGFPGVALLTEEYINFMASNFDRLTVWQDGKKVNFTLEAYNIPGALVQKLTAKDVQVEMTLRFATPRTSLLETKIISNKPLDLVWDGELLEKLEAKEGKPLSDKTIAGEYPDYQRKISATRDGLKVTFGKVRATWDLLTSGESEYQVHKSLPVQTEINGNRFTSKAHINGSTTLYTTYSHLLTSQEVSKEQMQIRDILARPAFYLTASQQRWEEYLKKGLTNPDATPEQTRVAVKAIETLNGNWRSPGGAVKYNTVTPSVTGRWFSGNQTWPWDTWKQAFAMAHFNPDIAKENIRAVFSWQIQPGDSVRPQDVGFVPDLIAWNLSPERGGDGGNWNERNTKPSLAAWSVMEVYNVTQDKTWVAEMYPKLVAYHDWWLRNRDHNGNGVPEYGATRDKAHNTESGEMLFTVKKGNKEETQSGLNNYARVVEKGQYDSLEIPAQVAASWESGRDDAAVFGFIDKEQLDKYVASGGKRSDWTVKFAENRSQDGTLLGYSLLQESVDQASYMYSDNHYLAEMATILGKPEEAKRYRQLAQQLADYINTCMFDPATQYFYDVRIEDKPLANGCAGKPIVERGKGPEGWSPLFNGAATQANADAVVKVMLDPKEFNTFVPLGTAALTNPAFGADIYWRGRVWVDQFWFGLKGMERYGYRDDALKLADTFFRHAKGLTADGPIQENYNPLTGAQQGAPNFSWSAAHFYMLYNDFFRKQ	not soluble
